Patent US20260266838

Molecular target: T1, Recombinant CC16 (uteroglobin SCGB1A1), P11684
T1 chain: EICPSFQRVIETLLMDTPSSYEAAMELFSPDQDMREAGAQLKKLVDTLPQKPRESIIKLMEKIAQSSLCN

B1: native human neutrophil elastase (protein)
chain: IVGGRRARPHAWPFMVSLQLRGGHFCGATLIAPNFVMSAAHCVANVNVRAVRVVLGAHNLSRREPTRQVFAVQRIFENGYDPVNLLNDIVILQLNGSATINANVQVAQLPAQGRRLGNGVQCLAMGWGLLGRNRGIASVLQELNVTVVTSLCRRSNVCTLVRGRQAGVCFGDSGSPLVCNGLIHGIASFVRGGCASGLYPDAFAPVAQFVNWIDSIIQ
  in vitro cleavage (mass spectrometry of fragments): two peptides with unique amino acid sequences released from HNE-mediated cleavage of CC16 in vitro
